Test results from US20230044037A1 (INTERVET, published 2023).

Target: T1, canine IL-4 receptor alpha (IL-4Rα) on DH82 cells (canine)
T1 construct: Endogenous receptor of the DH82 cells in the STAT-6 assay; also called canine IL-4Rα; IL-4R alpha
T1 chain: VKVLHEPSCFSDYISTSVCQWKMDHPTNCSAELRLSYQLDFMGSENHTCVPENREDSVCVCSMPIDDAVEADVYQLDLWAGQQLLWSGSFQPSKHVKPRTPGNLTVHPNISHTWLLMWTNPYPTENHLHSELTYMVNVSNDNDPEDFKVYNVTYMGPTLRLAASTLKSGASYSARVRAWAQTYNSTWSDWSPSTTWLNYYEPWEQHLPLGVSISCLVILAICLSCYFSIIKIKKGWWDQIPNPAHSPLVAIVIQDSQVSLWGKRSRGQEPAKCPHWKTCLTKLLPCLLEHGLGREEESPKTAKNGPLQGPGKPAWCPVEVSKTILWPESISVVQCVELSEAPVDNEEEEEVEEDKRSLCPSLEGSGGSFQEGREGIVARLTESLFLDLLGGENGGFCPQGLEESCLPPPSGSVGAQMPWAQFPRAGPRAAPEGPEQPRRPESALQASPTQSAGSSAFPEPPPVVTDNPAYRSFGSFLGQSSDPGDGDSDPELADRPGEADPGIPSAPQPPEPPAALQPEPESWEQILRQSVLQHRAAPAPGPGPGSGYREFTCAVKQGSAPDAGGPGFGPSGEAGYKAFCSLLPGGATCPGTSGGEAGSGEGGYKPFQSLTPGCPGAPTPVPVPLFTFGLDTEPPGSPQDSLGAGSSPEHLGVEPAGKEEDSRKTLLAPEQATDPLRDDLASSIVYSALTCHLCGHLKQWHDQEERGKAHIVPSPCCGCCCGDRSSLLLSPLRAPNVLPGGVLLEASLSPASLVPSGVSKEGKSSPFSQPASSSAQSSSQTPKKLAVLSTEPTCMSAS
Assay: told from inhibition of IL-4- and IL-13-mediated STAT-6 phosphorylation in DH82 cells (AlphaLISA)

B1: c152H11-H3L3 (c152H11VL3-cCLk-s/c152H11VH3-cIgG-Bm) (antibody, V domains shown)
VH: EVQLVESGGDLVKPGGSLRLSCAASGFTFSSYGMSWVRQAPDKRLQWVATISRGGDYTYYPDSVKGRFTISRDNAKNTLYLQMNSLRAEDTAMYYCARGTLNNRGFASWGQGTLVTVSS
VL: EIVMTQSPASLSLSQEEKVTITCKASQNVGTNVAWYQQKPGQAPKLLIYSASYRYSGLPDRFSGSGSGTDFSFTISSLEPEDVAEFFCQQYNSYPYTFGQGTKLEIKR
notes: Caninized anti-canine IL-4R alpha antibody: VH3 heavy chain on modified canine IgG-B (IgG-Bm), kappa light chain L3
  binding result: binds
